Data on one molecule can be found in patent CN105367658A (ZHU JIN, dated 2016).

The assay deals with T1, 重组人唾液酸结合免疫球蛋白样凝集素-9蛋白 (human, UniProt Q9Y336 18-348, limits assumed).
T1 construct: Purified recombinant protein coated on ELISA plates and (as 'antigen') coupled to the CM5 chip; also called recombinant human Siglec-9; Siglec9蛋白
Briefly: SPR (Biacore X100), antigen coupled to CM5 chip, analyte 0-80 nM. (In SPR one partner is held on a chip, and binding of the other changes the refractive index at the surface.)

T1 sequence (Q9Y336 18-348 limits assumed): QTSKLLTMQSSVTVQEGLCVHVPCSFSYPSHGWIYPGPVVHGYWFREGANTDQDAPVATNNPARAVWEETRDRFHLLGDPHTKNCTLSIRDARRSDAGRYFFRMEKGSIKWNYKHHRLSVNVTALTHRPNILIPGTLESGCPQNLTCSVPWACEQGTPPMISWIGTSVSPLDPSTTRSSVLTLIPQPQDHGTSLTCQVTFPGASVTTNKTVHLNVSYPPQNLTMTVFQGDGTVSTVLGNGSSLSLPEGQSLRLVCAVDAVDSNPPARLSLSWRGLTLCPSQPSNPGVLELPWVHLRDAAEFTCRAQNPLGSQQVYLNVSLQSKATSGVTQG

B1: 人源抗唾液酸结合免疫球蛋白样凝集素-9抗体IgG (antibody, V domains shown)
VH: EVQLVESGAEVKKPGASVKVSCKASGYIFTGYYMHWVRQAPGQGLEWMGWINPKSGGTNYAQKFQGRVTMTRDTSISTAYMELSRLRSDDTAVYYCVRDLGATGGDYWGQGTLVTVSS
VL: ELVLTQPPSVSVSPGQTARVTCSGDALPKKYAYWYQQKSGQAPILVIYGDNKRPSGIPERFSGSSSGTMATLTISGAQVEDEADYYCYSIDRSGNRVFGGGTRLTVLQ
notes: also called PA21抗体; 抗Siglec-9抗体
In the case of B1, binding was characterised by a dissociation constant (Kd) of 738 pM.

As usually defined, the Kd is the free concentration of one partner at which half of the binding sites on the other are occupied at equilibrium, for simple one-to-one binding.
